What was measured:
[1] = test system: bovine collagen alpha1 (IX) in bovine nasal cartilage explants
[2] = target: human collagen alpha1 (IX) in human articular cartilage (UniProt P20849)
Chain of human collagen alpha1 (IX) in human articular cartilage (P20849 24-921): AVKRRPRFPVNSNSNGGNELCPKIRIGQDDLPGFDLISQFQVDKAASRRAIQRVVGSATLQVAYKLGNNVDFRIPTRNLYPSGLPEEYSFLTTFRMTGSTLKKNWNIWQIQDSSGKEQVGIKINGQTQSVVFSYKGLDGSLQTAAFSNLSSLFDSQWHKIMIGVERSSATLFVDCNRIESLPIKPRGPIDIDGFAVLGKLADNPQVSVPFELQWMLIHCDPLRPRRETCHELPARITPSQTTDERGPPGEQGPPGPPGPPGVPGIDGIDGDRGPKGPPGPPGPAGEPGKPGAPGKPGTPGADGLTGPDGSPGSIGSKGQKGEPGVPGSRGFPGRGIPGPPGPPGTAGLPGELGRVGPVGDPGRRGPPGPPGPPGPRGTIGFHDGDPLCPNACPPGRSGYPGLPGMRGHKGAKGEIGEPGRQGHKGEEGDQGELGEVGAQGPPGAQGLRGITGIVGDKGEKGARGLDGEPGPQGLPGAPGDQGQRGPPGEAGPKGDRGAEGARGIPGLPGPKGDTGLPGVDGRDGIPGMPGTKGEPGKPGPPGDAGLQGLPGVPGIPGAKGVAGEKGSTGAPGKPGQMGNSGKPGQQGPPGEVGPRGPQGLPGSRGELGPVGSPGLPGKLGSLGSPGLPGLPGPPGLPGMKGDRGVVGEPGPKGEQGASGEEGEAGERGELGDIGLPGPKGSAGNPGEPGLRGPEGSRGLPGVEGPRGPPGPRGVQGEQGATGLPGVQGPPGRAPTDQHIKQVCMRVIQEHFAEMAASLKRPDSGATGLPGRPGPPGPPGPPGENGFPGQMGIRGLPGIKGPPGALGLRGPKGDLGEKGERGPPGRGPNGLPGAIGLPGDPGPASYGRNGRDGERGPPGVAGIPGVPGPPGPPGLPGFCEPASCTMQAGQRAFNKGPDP

matrix metalloproteinase 13 (MMP-13)
cleavage of collagen alpha1 (IX) in cartilage explants (Western blot and LC-MS of released fragments) [1]: Bovine nasal cartilage explants were digested with MMP-13 and indeed the enzyme cleaved collagen α1 (IX)
cleavage of collagen alpha1 (IX) in human articular cartilage (Western blot and LC-MS of the released 30 kD fragment) [2]: a peptide representing a potentially new cleavage site CHELPARITPSQ^263-COOH (SEQ ID NO:6) NH2-TTDERGPP- (SEQ ID NO:7)

From patent publication US20080220459
